Measurements published in paper PMC8506970.

Biological target: His-mATGL288-Str (expression product of pST44-HIS-SMT3-TEV-mATGL288-STR) (mouse) (UniProt Q8BJ56)
Sequence (Q8BJ56 1-288): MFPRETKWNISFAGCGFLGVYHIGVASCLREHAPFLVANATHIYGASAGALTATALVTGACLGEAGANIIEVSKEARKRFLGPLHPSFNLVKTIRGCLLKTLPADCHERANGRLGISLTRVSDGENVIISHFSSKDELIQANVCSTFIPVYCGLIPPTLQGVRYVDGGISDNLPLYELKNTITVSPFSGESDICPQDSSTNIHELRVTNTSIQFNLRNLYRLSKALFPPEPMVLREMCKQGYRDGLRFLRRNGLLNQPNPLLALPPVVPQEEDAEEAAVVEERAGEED

CGI-58 (expression product of pST44-SMT3-TEV-mCGI58-HIS), sequence (Q9DBL9 whole entry): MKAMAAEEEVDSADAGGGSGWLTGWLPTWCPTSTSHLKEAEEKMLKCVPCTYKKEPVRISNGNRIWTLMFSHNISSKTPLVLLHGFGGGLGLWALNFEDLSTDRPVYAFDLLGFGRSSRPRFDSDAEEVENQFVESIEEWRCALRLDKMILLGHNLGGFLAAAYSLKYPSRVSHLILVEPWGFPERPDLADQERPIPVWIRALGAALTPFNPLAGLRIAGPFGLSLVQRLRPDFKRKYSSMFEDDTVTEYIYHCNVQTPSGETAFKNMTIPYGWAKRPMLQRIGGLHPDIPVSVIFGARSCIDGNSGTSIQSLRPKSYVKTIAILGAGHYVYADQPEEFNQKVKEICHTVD

## CGI-58 (expression product of pST44-SMT3-TEV-mCGI58-HIS) (from UniProt Q9DBL9 1-351) (natural protein)
  TAG hydrolase activity of His-mATGL288-Str coactivated by CGI-58 after storage at 4 °C, against fresh protein: 50 % loss
  TAG hydrolase activity of His-mATGL288-Str coactivated by CGI-58 within 10 days of storage at -80 °C (snap frozen, 10% glycerol), against fresh protein: 50 % loss
  TAG hydrolase activity of freshly purified His-mATGL288-Str, CGI-58-stimulated against basal (equimolar mCGI-58): 10 fold
  TAG hydrolase activity upon CGI-58 coactivation of His-mATGL288-Str frozen in sucrose buffer at -80 °C, alone or as complex with CGI-58, against fresh protein: 40 % loss
